Measurements as given in the Immune Epitope Database (IEDB).
pKd: −log10 of the molar value.

Columns and labels:
Assay in all cases: IEDB peptide-MHC binding, purified MHC/competitive/radioactivity; filed as Kd, often an IC50 or EC50 that approximates it; ≥ and ≤ were set here for values at or beyond the usual limits of such assays
HLA-A*02:03 = biological target: HLA-A*02:03
HLA-A*02:06 = biological target: HLA-A*02:06
HLA-A*02:02 = biological target: HLA-A*02:02
HLA-A*33:01 = biological target: HLA-A*33:01
HLA-A*68:01 = biological target: HLA-A*68:01
HLA-A*31:01 = biological target: HLA-A*31:01
HLA-A*03:01 = biological target: HLA-A*03:01
HLA-A*11:01 = biological target: HLA-A*11:01
[1] = source organism: Vaccinia virus WR
[2] = source organism: Dengue virus 1 Brazil/97-11/1997
[3] = source organism: Dengue virus 3 Martinique/1243/1999
[4] = source organism: Mammarenavirus brazilense
[5] = source organism: SARS coronavirus Tor2
[6] = source organism: Mammarenavirus whitewaterense

| Sequence | pKd (HLA-A*33:01; [1]) | pKd (HLA-A*68:01; [1]) | pKd (HLA-A*31:01; [1]) | pKd (HLA-A*03:01; [1]) | pKd (HLA-A*11:01; [1]) | also measured |
| --- | --- | --- | --- | --- | --- | --- |
| DMLKLFTHDI |  |  |  |  |  | pKd (HLA-A*02:03; [1]): 7.79; pKd (HLA-A*02:06; [1]): 5.53; pKd (HLA-A*02:02; [1]): 6.71 |
| YIRRNMINKL |  |  |  |  |  | pKd (HLA-A*02:03; [1]): 7.16; pKd (HLA-A*02:06; [1]): 5.06; pKd (HLA-A*02:02; [1]): 6.09 |
| GTIILNKIV |  |  |  |  |  | pKd (HLA-A*02:03; [1]): 5.47; pKd (HLA-A*02:06; [1]): 5.84; pKd (HLA-A*02:02; [1]): 5.92 |
| YVMCTGSFKL |  |  |  |  |  | pKd (HLA-A*02:06; [2]): 7.73 |
| KVIKLVKSLV |  |  |  |  |  | pKd (HLA-A*02:03; [1]): 4.87; pKd (HLA-A*02:06; [1]): 5.67; pKd (HLA-A*02:02; [1]): 4.84 |
| QLEELEDEL |  |  |  |  |  | pKd (HLA-A*02:03; source organism: Homo sapiens): ≤ 4.16 |
| VQFSILNNPV |  |  |  |  |  | pKd (HLA-A*02:03; [1]): 6.43; pKd (HLA-A*02:06; [1]): 6.73; pKd (HLA-A*02:02; [1]): 6.88 |
| SLVSAGSGKV |  |  |  |  |  | pKd (HLA-A*02:03; [3]): 7.71 |
| SNPNLFWAV |  |  |  |  |  | pKd (HLA-A*02:03; [4]): 5.21; pKd (HLA-A*02:06; [4]): 7.46; pKd (HLA-A*02:02; [4]): 6.77 |
| IAACAMLLV |  |  |  |  |  | pKd (HLA-A*02:03; [5]): 6.41; pKd (HLA-A*02:06; [5]): 6.88; pKd (HLA-A*02:02; [5]): 6.49 |
| FAVGLLFRRL |  |  |  |  |  | pKd (HLA-A*02:06; [2]): 7.69 |
| LMAMDLGEL |  |  |  |  |  | pKd (HLA-A*02:03; source organism: Dengue virus 2 Peru/IQT2913/1996): 8.17 |
| TLILAPTRVV |  |  |  |  |  | pKd (HLA-A*02:03; source organism: Dengue virus 2 Jamaica/1409/1983): 7.37 |
| KLREVYTQL |  |  |  |  |  | pKd (HLA-A*02:03; [3]): 7.41 |
| YQVKTETTI |  |  |  |  |  | pKd (HLA-A*02:06; source organism: Dengue virus 4 Philippines/H241/1956): 7.58 |
| TLATGPLTTL |  |  |  |  |  | pKd (HLA-A*02:03; [2]): 8.03 |
| KSGGLSSGFY | ≤ 4.15 | ≤ 4.15 | ≤ 4.15 | 5.59 | 5.28 |  |
| GLSLQDYCY | 5.06 | ≤ 4.53 | ≤ 4.42 | 5.51 | 6.44 |  |
| STAWLCALGK |  |  |  |  |  | pKd (HLA-A*33:01; [5]): 5.03; pKd (HLA-A*68:01; [5]): 8.32; pKd (HLA-A*31:01; [5]): 6.57; pKd (HLA-A*03:01; [5]): 7.67; pKd (HLA-A*11:01; [5]): 9.46 |
| HIKVDHPDK | 6.53 | 5.71 | 6.80 | 5.29 | 5.25 |  |
| QTMLFTMLR |  |  |  |  |  | pKd (HLA-A*33:01; [5]): 8.91; pKd (HLA-A*68:01; [5]): 8.58; pKd (HLA-A*31:01; [5]): 9.79; pKd (HLA-A*03:01; [5]): 7.36; pKd (HLA-A*11:01; [5]): 8.74 |

| Sequence | pKd (HLA-A*33:01; [1]) | pKd (HLA-A*68:01; [1]) | pKd (HLA-A*31:01; [1]) | pKd (HLA-A*03:01; [1]) | pKd (HLA-A*11:01; [1]) | also measured |
| --- | --- | --- | --- | --- | --- | --- |
| GTDDEVIER | 5.93 | 6.20 | 5.65 | ≤ 4.20 | 6.43 |  |
| TTAFFNTCK | 6.00 | 9.02 | 6.65 | 7.34 | 9.31 |  |
| STGNYNYKYR |  |  |  |  |  | pKd (HLA-A*33:01; [5]): 5.96; pKd (HLA-A*68:01; [5]): 6.61; pKd (HLA-A*31:01; [5]): 7.46; pKd (HLA-A*03:01; [5]): 5.56; pKd (HLA-A*11:01; [5]): 5.86 |
| FLLFLEITY | 5.14 | 5.72 | 6.80 | 4.98 | 4.80 |  |
| YVVTTDISEM |  |  |  |  |  | pKd (HLA-A*02:06; [2]): 5.94 |
| LLALNDMGKV |  |  |  |  |  | pKd (HLA-A*02:03; [3]): 7.82 |
| SRLFEDLVWK |  |  |  |  |  | pKd (HLA-A*33:01; [6]): ≤ 4.15; pKd (HLA-A*68:01; [6]): 6.22; pKd (HLA-A*31:01; [6]): 5.07; pKd (HLA-A*03:01; [6]): 6.18; pKd (HLA-A*11:01; [6]): 5.90 |
| QLLMPLKAPK |  |  |  |  |  | pKd (HLA-A*33:01; [5]): 5.64; pKd (HLA-A*68:01; [5]): 5.82; pKd (HLA-A*31:01; [5]): 6.87; pKd (HLA-A*03:01; [5]): 7.00; pKd (HLA-A*11:01; [5]): 6.84 |
| STDVNKQNK | ≤ 4.11 | 6.54 | 5.93 | 5.05 | 7.92 |  |
| KASTISWMMK | ≤ 4.30 | 6.87 | 7.06 | 7.35 | 8.26 |  |
| NAILHNIYR | 8.74 | 9.25 | 8.29 | ≤ 4.44 | 5.87 |  |
| SLFYTFAISY | ≤ 4.50 | 5.88 | 5.24 | 8.44 | 8.04 |  |
| VTSLAIKNY | ≤ 4.11 | 4.90 | ≤ 4.46 | ≤ 4.60 | 6.49 |  |
| FTLNHVLALK | 5.77 | 8.34 | 6.87 | 7.97 | 8.10 |  |
| YIWIKNLETY | 5.35 | 6.79 | 5.76 | 5.84 | 5.46 |  |
| AISSRVDRY | ≤ 4.11 | 5.32 | 4.73 | 5.30 | 6.79 |  |
| VMCGGSLYVK |  |  |  |  |  | pKd (HLA-A*33:01; [5]): 4.79; pKd (HLA-A*68:01; [5]): 5.07; pKd (HLA-A*31:01; [5]): 6.19; pKd (HLA-A*03:01; [5]): 7.23; pKd (HLA-A*11:01; [5]): 7.33 |
| LIVSLCPTK | 5.84 | 7.12 | 4.85 | 5.08 | 6.97 |  |
| AALDGTFQRK | ≤ 4.15 | 5.08 | 5.37 | 7.31 | 8.09 |  |
| NLKSLLLENK | 5.67 | 6.86 | 5.97 | 7.05 | 7.20 |  |
